From patent US20260200990A1, “MODIFIED LONG PEPTIDES SUITABLE FOR USE IN IMMUNISATION” (ISABELLA PHARMA B.V., priority 2022, published 2026)
Ends that are not written are not given here.

Assays:
[1] = Stability of cysteine and cystine-containing peptides in 20% v/v DMSO in WFI (UPLC-UV-MS purity); assay type: physicochemical; conditions: room temperature
Experimental: To examine the effect on stability of a peptide that contains cysteine(s) (non-oxidized, C) or cystine(s) (oxidized, C (C)) in a formulation matrix (20% v/v DMSO in WFI (water for injection), four non-oxidized (SEQ ID NO: 1, 2, 3 and 4) and their oxidized, cystine-containing, peptides were manufactured and individually examined in 20% v/v DMSO (aq.)
Each peptide (2.0 mg) was dissolved in 2.0 ml of 0.09% TFA in H2O: acetonitrile (1:1, v/v). Aliquots of 200 μL were transferred to a 1 mL amber vial and then freeze dried overnight. An aliquot (0.2 mg) was then redissolved in 20% v/v DMSO in WFI (1 mL). After swirling for 2 minutes, a sample was analyzed by UPLC-UV-MS. The remainder of the sample was stored at room temperature and analyzed at different time intervals (1 h, 2 h, 3 h, 4 h). The identity and purity of the purified peptides were then determined by UPLC-UV-MS on a Waters Acquity UPLC/TQD system using an C18 Waters Acquity BEH130 analytical column (1.7 μm particle size, 2.1×150 mm, flow 0.4 mL/min) with a linear gradient (5% B to 95% B, linear gradient in 10 min). The absorbance was measured at 220 nm.
MassLynx v4.1 was used to integrate the individual peaks of the chromatogram in the region of the observed peptide-derived signals. The following ApexTrack peak detection parameters were used for integration: peak-to-peak baseline noise was set at automatic, peak width at 5% height was set at automatic, baseline start threshold of 0.05% and baseline end threshold of 0.05%. The detect shoulder function was turned on. The following response thresholds were set: relative height of 0.20 and relative area of 0.10. After the peak of the desired peptide was identified by MS, the corresponding integral of the peak in the UV chromatogram is reported in Table 2 as percentage of the total integrated peaks, purity (% a/a).
Purity of the non-oxidized and oxidized peptide composition over time was evaluated over 4 h. Additional mass adducts, consistent with the formation of intermolecular or intramolecular disulfide bonds, increased over time in all spectra of cysteine-containing peptides compared to cystine-containing peptides. The purity of the non-oxidized peptides set forth in SEQ ID NO: 1, 3 and 4 declined from >90% a/a at to less than 80% a/a with the lowest stability observed for SEQ ID NO: 1 with a purity of 64% a/a after 4 h. For the cystine-containing peptide analogs, the purity remained >90% a/a after 4 h.

[2] = Stability of peptide mixtures under long term and accelerated storage (UPLC); assay type: physicochemical; conditions: peptide in mixture of 6 peptides
Experimental: To examine the effect on stability of peptides that contain cystine (oxidized, C (C)) present in a mixture of 6 peptides, two examples of mixtures of both non-cysteine-containing (NCC1-6) and cystine-containing (SEQ ID NO: 1-6) peptides were assessed. Typical chromatograms of the two mixtures are depicted in FIG. 2. Both mixtures were placed on two different storage conditions, ‘long term storage condition’ (i.e. −20±5° C.) and ‘accelerated storage condition’ (i.e. 5±3° C.).
The purity, the level of impurities, and the quantification per peptide of both mixtures are determined by reversed phase rapid UPLC using a mobile phase gradient of ACN/IPA and water with TFA, and UV detection at λ=220 nm. The method quantifies main peaks and impurities in mixtures of peptides. The reporting threshold for the method is 0.10% a/a.
Both mixtures of six peptides were stored under the two conditions described and by using the analytical method as described. The stability was monitored. The quantity of each of the peptides present in the mix (assay values), the purity, and the individual impurities were measured at several timepoints over a period of 3 months. […] Furthermore, focussing on the individual impurities it is shown that no significant degradation has taken place as all levels remain constant and no new impurities have formed.

Sequence	Purity (% a/a) ([1]; Time 0 h)	Purity (% a/a) ([1]; Time 1 h)	Purity (% a/a) ([1]; Time 2 h)	Purity (% a/a) ([1]; Time 3 h)	Purity (% a/a) ([1]; Time 4 h)	Assay (net peptide content) (mg/vial) ([2]; Initial)	Assay (net peptide content) (mg/vial) ([2]; Storage at 5 ± 3° C., T1M)	Assay (net peptide content) (mg/vial) ([2]; Storage at 5 ± 3° C., T2M)	Assay (net peptide content) (mg/vial) ([2]; Storage at 5 ± 3° C., T3M)	Assay (net peptide content) (mg/vial) ([2]; Storage at −20 ± 5° C., T2M)	Assay (net peptide content) (mg/vial) ([2]; Storage at −20 ± 5° C., T3M)
AARLCCQLDPARDVLCLRPVGAESR [Cysteine (C) containing SEQ ID NO: 4, reference compound]	96.51 % a/a	90.72 % a/a	83.13 % a/a	77.16 % a/a	72.13 % a/a						
LSAMSTTDLEAYFKDCLFKDWEELG [SEQ ID 2]						0.24 mg/vial	0.24 mg/vial	0.25 mg/vial	0.25 mg/vial	0.25 mg/vial	0.25 mg/vial
VVNHYFQTRHYLHTLWKAGILYKRETTRSASFCGSPYSW (VVNHYFQTRHYLHTLWKAGILYKRETTRSASFC(Cys)GSPYSW) [SEQ ID 5, HBV Pol fragment SLP with cysteinylated cysteine]						0.20 mg/vial	0.20 mg/vial	0.21 mg/vial	0.22 mg/vial	0.20 mg/vial	0.22 mg/vial
VLSRKYTSFPWLLGCTANWILRGTSFVYVPSALNPA [Cysteine (C) containing SEQ ID NO: 3, HBV Pol fragment, unmodified cysteine comparator, reference compound]	97.66 % a/a	93.48 % a/a	87.94 % a/a	84.12 % a/a	79.81 % a/a						
YPALMPLYACIQAKQAFTFSPTYKAFLSKQYMNLYPVAR (cysteinylated cysteine) [SEQ ID 6, HBV Pol fragment SLP with cysteinylated cysteine]						0.21 mg/vial	0.20 mg/vial	0.21 mg/vial	0.22 mg/vial	0.20 mg/vial	0.22 mg/vial
VLSRKYTSFPWLLGCTANWILRGTSFVYVPSALNPA [Cystine(C(C)) containing SEQ ID NO: 3] (VLSRKYTSFPWLLGC(Cys)TANWILRGTSFVYVPSALNPA) [HBV Pol fragment SLP with cysteinylated cysteine]	97.44 % a/a	97.48 % a/a	97.28 % a/a	97.30 % a/a	97.34 % a/a	0.24 mg/vial	0.23 mg/vial	0.24 mg/vial	0.25 mg/vial	0.24 mg/vial	0.25 mg/vial
HLSLRGLPVCAFSSAGPCALRFTSA [Cysteine (C) containing SEQ ID NO: 1, reference compound]	95.01 % a/a	86.88 % a/a	78.20 % a/a	70.34 % a/a	64.12 % a/a						
HLSLRGLPVCAFSSAGPCALRFTSA [Cystine(C(C)) containing SEQ ID NO: 1]	97.14 % a/a	96.67 % a/a	95.10 % a/a	95.97 % a/a	95.74 % a/a	0.24 mg/vial	0.23 mg/vial	0.24 mg/vial	0.23 mg/vial	0.24 mg/vial	0.24 mg/vial
AARLCCQLDPARDVLCLRPVGAESR [Cystine(C(C)) containing SEQ ID NO: 4]	93.50 % a/a	94.26 % a/a	93.58 % a/a	93.16 % a/a	92.89 % a/a	0.21 mg/vial	0.20 mg/vial	0.21 mg/vial	0.21 mg/vial	0.20 mg/vial	0.21 mg/vial
